Results published in paper PMC9691366, “Modulating the pharmacokinetic profile of Actinium-225-labeled macropa-derived radioconjugates by dual targeting of PSMA and albumin” (Theranostics, 2022).

Legend:
[1] = tested on: LNCaP tumor-bearing SCID mice; test: Ex vivo biodistribution in LNCaP tumor-bearing SCID mice
Text: (§1) The biodistribution experiments with [^225Ac]Ac-mcp-M-alb-PSMA and [^225Ac]Ac-mcp-D-alb-PSMA were accomplished using LNCaP tumor-bearing mice. The SCID male mice (ENVIGO, Indianapolis, IN, USA) 8 weeks old were subcutaneously xenografted into the right flank with 10∙10^6 LNCaP cells (ATCC, Manassas, VA, USA) mixed with Matrigel Matrix (Corning Inc., Corning, NY, USA) at a 1:1 ratio. The tumor growth was periodically monitored by caliper-based measurements. When the tumor volume reached 200-300 mm^3 (i.e., approx. 6 weeks after the xenografting of the cells), the mice were enrolled in the biodistribution study. All experimental animals were housed in a specific-pathogen-free animal facility and all experiments with animals were performed in accordance with appropriate legal norms (Czech Law No. 246/1992) and with the approval of the Ministry of Education, Youth and Sports (MSMT-35035/2019-3) and approval of the Ethical committee of Faculty of Medicine and Dentistry, Palacky University in Olomouc. The number of animals was reduced as much as possible (n = 3-4 per group and time point) for in vivo experiments in order to strictly follow 3Rs principle.
(§2) For the purpose of biodistribution studies, the ^225Ac-radioconjugates were diluted with saline. The diluted ^225Ac-radioconjugates were applied retro-orbitally (r.o.) to the experimental animals at a dose of 50 kBq per mouse corresponding to 10 pmol of the PSMA-inhibitor. The radioactivity application was carried out under 2% isoflurane anesthesia (FORANE, Abbott Laboratories, Abbott Park, IL, USA) to minimize animal suffering and to prevent animal motion. The mice were sacrificed by cervical dislocation 1, 4, 24, 48, 72, and 120 h (plus 168 h for [^225Ac]Ac-mcp-D-alb-PSMA) post-injection and organs of interest (blood, spleen, pancreas, stomach, intestine, kidneys, liver, heart, lungs, muscle, bone, and tumor) were collected. The organs were weighed, and their radioactivity was counted on an automatic gamma counter. The uptake of the ^225Ac-radioconjugates was expressed as a percentage of injected dose per gram of the corresponding organ (%ID/g). The area under the curve (AUC) was determined for both tested PSMA ligands from non-decay-corrected data obtained from the ex vivo biodistribution data of the tumors, kidneys, and blood.

[2] = as above; settings: mouse, in vivo, 50 kBq per mouse; for tissue uptake at 1 h: 1 h p.i.; for tissue uptake at 4 h: 4 h p.i.; for tissue uptake at 24 h: 24 h p.i.; for tissue uptake at 48 h: 48 h p.i.; for tissue uptake at 72 h: 72 h p.i.; for tissue uptake at 120 h: 120 h p.i.; for tissue uptake at 168 h: 168 h p.i.
Text: as §1, §2

[3] = non-decay corrected biodistribution data, mean ± SD

O=C(O)CC[C@H](NC(=O)N[C@@H](CCCCNC(=O)[C@H](Cc1ccc2ccccc2c1)NC(=O)[C@H]1CC[C@H](CNC(=O)[C@H](CCCCn2cc(COc3cc(CN4CCOCCOCCN(Cc5cc(OCc6cn(CCCC[C@H](NC(=O)[C@H](CCC(=O)O)NC(=O)CCCc7ccc(I)cc7)C(=O)NC[C@H]7CC[C@H](C(=O)N[C@@H](Cc8ccc9ccccc9c8)C(=O)NCCCC[C@H](NC(=O)N[C@@H](CCC(=O)O)C(=O)O)C(=O)O)CC7)nn6)cc(C(=O)O)n5)CCOCCOCC4)nc(C(=O)O)c3)nn2)NC(=O)[C@H](CCC(=O)O)NC(=O)CCCc2ccc(I)cc2)CC1)C(=O)O)C(=O)O [[^225Ac]Ac-mcp-D-alb-PSMA, metal not drawn]
tumor uptake (AV) ([1]; 168 h p.i.): 153.48 ± 37.76 %ID/g | AUC for tumor accumulation compared to monovalent counterpart ([1]; mouse, in vivo): almost double | AUCTu-to-AUCBl ([1]; mouse, in vivo): 26 | AUCTu-to-AUCKi ([1]; mouse, in vivo): 1.4 | AUCTu-to-AUCLi ([1]; mouse, in vivo): 20 | AUCTu-to-AUCLi ratio compared with monovalent version of the ligand ([1]; mouse, in vivo): 0.7 fold | blood clearance: duration of excretion ([1]; mouse, in vivo): 72 h | maximal tumor uptake compared to counterpart without dedicated albumin binder ([1]; mouse, in vivo): twelve times higher | AUC Blood [1, 3]: 249 ± 10.4 %ID/g.h | AUC Kidneys [1, 3]: 4519 ± 193 %ID/g.h | AUC Liver [1, 3]: 328 ± 15.8 %ID/g.h | AUC Tumor [1, 3]: 6455 ± 411 %ID/g.h | tissue to tissue ratio ([2]; male, SCID, total radioactivity): 1420 | tissue uptake at 1 h ([2]; blood uptake (AV)): 8.44 %ID/g | tissue uptake at 4 h ([2]; blood uptake (AV)): 6.5 %ID/g | tissue uptake at 24 h ([2]; blood uptake (AV)): 2.85 %ID/g | tissue uptake at 48 h ([2]; blood uptake (AV)): 1.22 %ID/g | tissue uptake at 72 h ([2]; blood uptake (AV)): 0.7 %ID/g | tissue uptake at 120 h ([2]; blood uptake (AV)): 0.2 %ID/g | tissue uptake at 168 h ([2]; blood uptake (AV)): 0.11 %ID/g | tissue uptake at 1 h ([2]; femur uptake (AV)): 0.84 %ID/g | tissue uptake at 4 h ([2]; femur uptake (AV)): 0.89 %ID/g | tissue uptake at 24 h ([2]; femur uptake (AV)): 0.74 %ID/g | tissue uptake at 48 h ([2]; femur uptake (AV)): 0.96 %ID/g | tissue uptake at 72 h ([2]; femur uptake (AV)): 0.87 %ID/g | tissue uptake at 120 h ([2]; femur uptake (AV)): 1.22 %ID/g | tissue uptake at 168 h ([2]; femur uptake (AV)): 1.3 %ID/g | tissue uptake at 1 h ([2]; heart uptake (AV)): 2.47 %ID/g | tissue uptake at 4 h ([2]; heart uptake (AV)): 2.32 %ID/g | tissue uptake at 24 h ([2]; heart uptake (AV)): 1.21 %ID/g | tissue uptake at 48 h ([2]; heart uptake (AV)): 0.94 %ID/g | tissue uptake at 72 h ([2]; heart uptake (AV)): 0.82 %ID/g | tissue uptake at 120 h ([2]; heart uptake (AV)): 0.88 %ID/g | tissue uptake at 168 h ([2]; heart uptake (AV)): 0.83 %ID/g | tissue uptake at 1 h ([2]; intestine uptake (AV)): 0.8 %ID/g | tissue uptake at 4 h ([2]; intestine uptake (AV)): 0.64 %ID/g | tissue uptake at 24 h ([2]; intestine uptake (AV)): 0.58 %ID/g | tissue uptake at 48 h ([2]; intestine uptake (AV)): 0.37 %ID/g | tissue uptake at 72 h ([2]; intestine uptake (AV)): 0.26 %ID/g | tissue uptake at 120 h ([2]; intestine uptake (AV)): 0.19 %ID/g | tissue uptake at 168 h ([2]; intestine uptake (AV)): 0.17 %ID/g | tissue uptake at 1 h ([2]; kidneys uptake (AV)): 9.23 %ID/g | tissue uptake at 4 h ([2]; kidneys uptake (AV)): 21.8 %ID/g | tissue uptake at 24 h ([2]; kidneys uptake (AV)): 43.7 %ID/g | tissue uptake at 48 h ([2]; kidneys uptake (AV)): 59.9 ± 6.46 %ID/g | tissue uptake at 72 h ([2]; kidneys uptake (AV)): 50.1 %ID/g | tissue uptake at 120 h ([2]; kidneys uptake (AV)): 37.6 %ID/g | tissue uptake at 168 h ([2]; kidneys uptake (AV)): 33.7 ± 9.57 %ID/g | tissue uptake at 1 h ([2]; liver uptake (AV)): 2.42 %ID/g | tissue uptake at 4 h ([2]; liver uptake (AV)): 2.45 %ID/g | tissue uptake at 24 h ([2]; liver uptake (AV)): 2.52 %ID/g | tissue uptake at 48 h ([2]; liver uptake (AV)): 3.73 %ID/g | tissue uptake at 72 h ([2]; liver uptake (AV)): 3.39 %ID/g | tissue uptake at 120 h ([2]; liver uptake (AV)): 3.9 %ID/g | tissue uptake at 168 h ([2]; liver uptake (AV)): 4.31 %ID/g | tissue uptake at 1 h ([2]; lung uptake (AV)): 5.67 %ID/g | tissue uptake at 4 h ([2]; lung uptake (AV)): 4.57 %ID/g | tissue uptake at 24 h ([2]; lung uptake (AV)): 2.3 %ID/g | tissue uptake at 48 h ([2]; lung uptake (AV)): 2.75 %ID/g | tissue uptake at 72 h ([2]; lung uptake (AV)): 2.98 %ID/g | tissue uptake at 120 h ([2]; lung uptake (AV)): 7.5 %ID/g | tissue uptake at 168 h ([2]; lung uptake (AV)): 4.95 %ID/g | tissue uptake ([2]; maximal uptake in spleen): 11.4 ± 2.89 %ID/g | tissue uptake at 1 h ([2]; muscle uptake (AV)): 0.49 %ID/g | tissue uptake at 4 h ([2]; muscle uptake (AV)): 0.58 %ID/g | tissue uptake at 24 h ([2]; muscle uptake (AV)): 0.28 %ID/g | tissue uptake at 48 h ([2]; muscle uptake (AV)): 0.29 %ID/g | tissue uptake at 72 h ([2]; muscle uptake (AV)): 0.2 %ID/g | tissue uptake at 120 h ([2]; muscle uptake (AV)): 0.24 %ID/g | tissue uptake at 168 h ([2]; muscle uptake (AV)): 0.22 %ID/g | tissue uptake at 1 h ([2]; pancreas uptake (AV)): 0.68 %ID/g | tissue uptake at 4 h ([2]; pancreas uptake (AV)): 0.58 %ID/g | tissue uptake at 24 h ([2]; pancreas uptake (AV)): 0.5 %ID/g | tissue uptake at 48 h ([2]; pancreas uptake (AV)): 0.35 %ID/g | tissue uptake at 72 h ([2]; pancreas uptake (AV)): 0.39 %ID/g | tissue uptake at 120 h ([2]; pancreas uptake (AV)): 0.42 %ID/g | tissue uptake at 168 h ([2]; pancreas uptake (AV)): 0.37 %ID/g | tissue uptake at 1 h ([2]; spleen uptake (AV)): 7.11 %ID/g | tissue uptake at 4 h ([2]; spleen uptake (AV)): 6.21 %ID/g | tissue uptake at 24 h ([2]; spleen uptake (AV)): 5.24 %ID/g | tissue uptake at 48 h ([2]; spleen uptake (AV)): 8.33 %ID/g | tissue uptake at 72 h ([2]; spleen uptake (AV)): 10.2 %ID/g | tissue uptake at 120 h ([2]; spleen uptake (AV)): 10 %ID/g | tissue uptake at 168 h ([2]; spleen uptake (AV)): 11.4 %ID/g | tissue uptake at 1 h ([2]; stomach uptake (AV)): 0.98 %ID/g | tissue uptake at 4 h ([2]; stomach uptake (AV)): 0.59 %ID/g | tissue uptake at 24 h ([2]; stomach uptake (AV)): 0.61 %ID/g | tissue uptake at 48 h ([2]; stomach uptake (AV)): 0.4 %ID/g | tissue uptake at 72 h ([2]; stomach uptake (AV)): 0.27 %ID/g | tissue uptake at 120 h ([2]; stomach uptake (AV)): 0.34 %ID/g | tissue uptake at 168 h ([2]; stomach uptake (AV)): 0.27 %ID/g | tissue uptake at 1 h ([2]; tumor uptake (AV)): 3.35 %ID/g | tissue uptake at 4 h ([2]; tumor uptake (AV)): 10.6 %ID/g | tissue uptake at 24 h ([2]; tumor uptake (AV)): 27.6 %ID/g | tissue uptake at 48 h ([2]; tumor uptake (AV)): 57.4 %ID/g | tissue uptake at 72 h ([2]; tumor uptake (AV)): 86.4 %ID/g | tissue uptake at 120 h ([2]; tumor uptake (AV)): 120 %ID/g | tissue uptake at 168 h ([2]; tumor uptake (AV)): 127 %ID/g
